Measurements from the supplement of paper PMC9732359.
± gives the uncertainty stated by the source.

Test: protein stability index of a GFP-peptide fusion (yeast GPS) (PSI 1-4); higher = more stable; sorted into four equal gates, so the index is relative within each strain
Method in brief: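 Tiled 17-residue peptides from yeast proteins were fused downstream of GFP on a plasmid that also expresses Cherry, and the pooled library was carried in yeast. Mid-log cultures grown in leucine-free medium were sorted into four equal gates by GFP/Cherry fluorescence ratio. Plasmids from each gate were PCR-amplified and Illumina-sequenced, and reads were assigned to strains by barcodes. Each peptide's protein stability index is the sum, over gates, of the gate's read frequency multiplied by its gate number.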

Sequence | protein stability index (doa10∆) | protein stability index (pdr5∆) | protein stability index (san1∆) | protein stability index (ubr1∆)
GIFEKAKAKAVTSKVRN [YMR153W/NUP53] | 2.24 ± 0.1 | 2.59 ± 0.26 | 2.51 ± 0.15 | 2.38 ± 0.085
NLKGRPYTGWVDSKTKE [FAS2] | 3.03 ± 0.062 | 2.95 ± 0.047 | 3.11 ± 0.048 | 3.04 ± 0.045
KLPLLNESLIPLINLAL [YML103C/NUP188] | 1.69 ± 0.061 | 2.16 ± 0.068 | 1.73 ± 0.079 | 1.98 ± 0.054
APSDFSENQRQIFCVFS [GRR1] | 2.93 ± 0.071 | 2.58 ± 0.078 | 2.76 ± 0.064 | 2.65 ± 0.057
FITAKDKYKLYPVRIPR [YJR042W/NUP85] | 2.87 ± 0.06 | 2.73 ± 0.087 | 3.06 ± 0.077 | 2.89 ± 0.069
TGLNGSGKSNILDAICF [SMC2] | 3.4 ± 0.12 | 2.98 ± 0.093 | 3.28 ± 0.063 | 3.31 ± 0.054
KLHFKDTKPFLNKDSTN [NUT1] | 2.51 ± 0.098 | 2.23 ± 0.073 | 1.99 ± 0.071 | 2.6 ± 0.041
AAGSYYVEAQHKLVFVV [RPL7A] | 2.33 ± 0.072 | 2.74 ± 0.048 | 2.26 ± 0.069 | 2.4 ± 0.044
NEIEGKNEETPQNEKPP [RPC25] | 2.76 ± 0.21 | 3.14 ± 0.15 | 2.22 ± 0.11 | 3.3 ± 0.078
MQDPDGIDINTKIFNSV [YCG1] | 2.93 ± 0.21 | 3.04 ± 0.12 | 2.54 ± 0.17 | 2.89 ± 0.068
QQQQQQQQRRQLTPQQQ [GAL11] | 2.764 ± 0.025 | 2.826 ± 0.025 | 2.877 ± 0.02 | 2.833 ± 0.022
DDMDIDEVNDRSDISDS [PCI8] | 3.22 ± 0.12 | 3.1 ± 0.1 | 3.26 ± 0.048 | 3.02 ± 0.085
GWKPLRYLDNLKQEIDR [SNU114] |  |  |  | 3.15 ± 0.13
AQGKEFGVTKARWPAKS [RPL17A] | 3.02 ± 0.13 | 3.49 ± 0.12 | 3.26 ± 0.066 | 3.35 ± 0.097
PGAKPLQVGDVVSTTAV [FAS1] | 2.51 ± 0.075 | 2.42 ± 0.086 | 2.48 ± 0.077 | 2.66 ± 0.065
EVAQYLQEIYQTDAIKS [RPN5] | 2.3 ± 0.084 | 2.44 ± 0.099 | 2.47 ± 0.1 | 2.29 ± 0.13
IDSQMDEASGTPDEDML [GRR1] | 2.93 ± 0.063 | 2.96 ± 0.065 | 2.85 ± 0.068 | 3.02 ± 0.053
TKKSKLESTKAETDYVD [DSN1] | 2.58 ± 0.073 | 2.9 ± 0.069 | 2.73 ± 0.087 | 3.03 ± 0.059
GCVSYSPAALKQLASLK [YMR153W/NUP53] | 1.7 ± 0.066 | 2.22 ± 0.07 | 2.08 ± 0.12 | 2.62 ± 0.078
GGESMEGPKKCIQVNCL [SNM1] | 1.92 ± 0.053 | 1.95 ± 0.054 | 2.23 ± 0.1 | 1.79 ± 0.054
DKDSEELDSKTRKILEI [MED4] | 2.98 ± 0.093 | 2.65 ± 0.091 | 3.11 ± 0.061 | 2.98 ± 0.064
LIYHLKDCAEVDSRTKI [IRR1] | 3.23 ± 0.086 | 3.18 ± 0.072 | 3.02 ± 0.058 | 3.23 ± 0.092
ALEDEERDEILTLTDSQ [BRR2] | 3.09 ± 0.13 | 3.25 ± 0.14 | 3.23 ± 0.088 | 3.12 ± 0.16
IFIRQLKENEENEDGNI [BRR2] | 3.5 ± 0.094 | 3.37 ± 0.19 | 3.2 ± 0.067 | 2.01 ± 0.087
MVKNVKPSSPPDVKSLV [SIR4] | 3.23 ± 0.11 | 3.12 ± 0.063 | 2.97 ± 0.085 | 3.13 ± 0.068
VGFLVQLDLTGIFLHGK [PRP8] | 2.17 ± 0.074 | 1.85 ± 0.05 | 2.33 ± 0.058 | 2.39 ± 0.067
QYYVTQHDKMVDKIFEK [SWI1] | 2.96 ± 0.1 | 2.42 ± 0.06 | 2.68 ± 0.068 | 2.84 ± 0.034

Sequence | protein stability index (doa10∆) | protein stability index (pdr5∆) | protein stability index (san1∆) | protein stability index (ubr1∆)
ADIENSTSGDPSEFHCL [SSN2] | 3.15 ± 0.18 | 3.31 ± 0.26 | 3.21 ± 0.12 | 3.29 ± 0.12
HTEDEQIEKKKICRGRM [SIR4] | 3.52 ± 0.17 | 3.38 ± 0.12 | 3.48 ± 0.13 | 3.16 ± 0.083
GTPLLEVRGQVPVIESA [SNU114] | 1.62 ± 0.046 | 1.88 ± 0.052 | 2.06 ± 0.093 | 1.95 ± 0.048
PDLNIDRNNSTNQIFQS [SIN4] | 3.1 ± 0.29 |  | 2.7 ± 0.21 | 2.19 ± 0.15
KSPEQCILRFLQLPIED [SWI3] | 1.81 ± 0.067 | 2.3 ± 0.062 | 1.76 ± 0.12 | 1.41 ± 0.038
HTLMSFAGEAGDTVQFA [PRE1] | 3.01 ± 0.11 | 3.3 ± 0.15 | 2.95 ± 0.095 | 3.22 ± 0.12
NQSFIQQKANLLSSSNF [COR1] | 2.17 ± 0.067 | 1.91 ± 0.069 | 2.04 ± 0.083 | 1.76 ± 0.042
HEVEEILNELQPNARAL [SMC1] | 3.09 ± 0.13 | 3.4 ± 0.12 | 3.1 ± 0.099 | 3.44 ± 0.069
VTIASEIYYDPDPRSTV [RPO21] | 2.41 ± 0.14 | 2.86 ± 0.14 |  | 2.52 ± 0.11
HGVLQGTSQNYGTATAD [MED1] | 3.2 ± 0.091 | 3.13 ± 0.076 | 2.96 ± 0.078 | 3.14 ± 0.052
YGKLRNGMFCQVPSSLI [RRP4] | 2.22 ± 0.066 | 2 ± 0.1 | 2.4 ± 0.09 | 2 ± 0.072
KSWLNRLNNWLFGWNDL [YMR153W/NUP53] | 2.63 ± 0.057 | 2.33 ± 0.045 | 2.03 ± 0.065 | 2.68 ± 0.04
VFSHAQTAVTCESCSTV [RPS27B] | 1.57 ± 0.13 | 2.46 ± 0.14 | 2.24 ± 0.15 | 2.04 ± 0.11
INHKINNKITQLIAKNV [SIR3] | 1.58 ± 0.063 | 1.7 ± 0.062 | 2.22 ± 0.077 | 2.16 ± 0.064
VETNTTVLADEFIAHRL [RPB3] | 3.05 ± 0.058 | 3.18 ± 0.054 | 3.19 ± 0.04 | 3.22 ± 0.033
VAAAGITASTLLYADSL [CYT1] | 1.89 ± 0.068 | 2.12 ± 0.078 | 1.75 ± 0.14 | 1.93 ± 0.078
KFTIEPGVLPVGIDTHT [SNF2] | 2.75 ± 0.12 | 2.61 ± 0.14 | 3 ± 0.14 | 2.73 ± 0.068
KKSRSNLSQENDNEGKH [YAR002W/NUP60] | 2.77 ± 0.058 | 3.12 ± 0.052 | 2.91 ± 0.049 | 3.11 ± 0.044
RANVYVGFLVQLDLTGI [PRP8] | 2.5 ± 0.05 | 2.13 ± 0.052 | 2.21 ± 0.057 | 2.45 ± 0.05
FSFGAKPAEKNNNETSK [YJL041W/NSP1] |  | 2.52 ± 0.24 |  | 3.08 ± 0.24
DRSKPVALTSFLGYKAG [RPL3] | 2.85 ± 0.075 | 2.89 ± 0.063 | 3.08 ± 0.06 | 2.09 ± 0.036
KAAFEDLKSKGLIPADA [FAS1] | 3 ± 0.09 | 3.29 ± 0.1 | 3.14 ± 0.073 | 3.35 ± 0.066
KSLLLNTLNIDNTARVI [BRN1] | 2.71 ± 0.057 | 2.48 ± 0.052 | 2.47 ± 0.066 | 2.42 ± 0.034
PINLPPQIAQLPLATQQ [SNF5] | 2.15 ± 0.071 | 2.49 ± 0.059 | 2.46 ± 0.089 | 2.27 ± 0.053
GELDVLQIESVTKETVH [PRP8] | 2.54 ± 0.054 | 2.73 ± 0.066 | 2.55 ± 0.07 | 2.76 ± 0.064
FQALDSEETQFKYVEDR [ITC1] | 2.88 ± 0.097 | 3.44 ± 0.12 | 3.06 ± 0.069 | 3.45 ± 0.14
KAELEKQKSWVPSYIHV [YIL149C/MLP2] | 2.09 ± 0.052 | 2.33 ± 0.041 | 2.15 ± 0.077 | 2.31 ± 0.035
